Assay [1] relates to radiant heat-induced tail-flick response in mice. In words: Tail flick test, radiant heat-induced pain in mice. The class given is in vivo. The protocol: The tail flick test measures the time (max 15 s) required to elicit a radiant heat-induced tail-flick response in mice. Mice received 1000 mg/kg rhLF or placebo orally 60 minutes prior to test (N=5 per group).
A general note: Hot-plate and tail-flick tests time the reaction to a heat stimulus.

In assay [2] the test system is phenylquinone-induced writhes in mice. The assay can be described thus: Phenylquinone (PQ)-induced writhing test in mice. It is filed as in vivo. As to the method: The PQ test measures the number of writhes seen during a 5-10 minute period following IP injection of phenylquinone in mice (2 mg/kg) (N=3). Mice received 1000 mg/kg rhLF or placebo orally 60 minutes prior to test (N=5 per group).
(In writhing tests, fewer writhes than in controls are read as antinociception.)

B1: recombinant human lactoferrin (protein, UniProt P02788 20-710, looked up)
Lactotransferrin: GRRRSVQWCAVSQPEATKCFQWQRNMRKVRGPPVSCIKRDSPIQCIQAIAENRADAVTLDGGFIYEAGLAPYKLRPVAAEVYGTERQPRTHYYAVAVVKKGGSFQLNELQGLKSCHTGLRRTAGWNVPIGTLRPFLNWTGPPEPIEAAVARFFSASCVPGADKGQFPNLCRLCAGTGENKCAFSSQEPYFSYSGAFKCLRDGAGDVAFIRESTVFEDLSDEAERDEYELLCPDNTRKPVDKFKDCHLARVPSHAVVARSVNGKEDAIWNLLRQAQEKFGKDKSPKFQLFGSPSGQKDLLFKDSAIGFSRVPPRIDSGLYLGSGYFTAIQNLRKSEEEVAARRARVVWCAVGEQELRKCNQWSGLSEGSVTCSSASTTEDCIALVLKGEADAMSLDGGYVYTAGKCGLVPVLAENYKSQQSSDPDPNCVDRPVEGYLAVAVVRRSDTSLTWNSVKGKKSCHTAVDRTAGWNIPMGLLFNQTGSCKFDEYFSQSCAPGSDPRSNLCALCIGDEQGENKCVPNSNERYYGYTGAFRCLAENAGDVAFVKDVTVLQNTDGNNNEAWAKDLKLADFALLCLDGKRKPVTEARSCHLAMAPNHAVVSRMDKVERLKQVLLHQQAKFGRNGSDCPDKFCLFQSETKNLLFNDNTECLARLHGKTTYEKYLGPQYVAGITNLKKCSTSPLLEACEFLRK
With B1, the “reduction in pain as measured by number of tail flicks observed” value in assay [1] (1000 mg/kg orally 60 minutes prior to test, vs placebo (FIG. 1)) was “statistically significant reduction in pain”. Besides, the “difference in tail flick response between placebo and treated groups at time zero” value in assay [1] (1000 mg/kg orally, time zero (FIG. 1)) is on record as “No difference in response”. The “reduction in pain as measured by number of writhes observed” value in assay [2] (1000 mg/kg orally 60 minutes prior to test, IP phenylquinone 2 mg/kg, writhes during 5-10 minute period, vs placebo (FIG. 2)) was “reduction in pain”. Also, the “difference in writhing response between placebo and treated groups at time zero” value in assay [2] (1000 mg/kg orally, time zero (FIG. 2)) is on record as “No difference in response”.

The values are drawn from US7638487B2, “Lactoferrin in the reduction of pain” (Agennix, Inc., priority 2002, dated 2009).
